In US20220227866A1 (VELOSBIO, published 2022):
Substitutions are numbered along the chain they refer to. Where “and” joins values, the source holds several entries; their conditions need not be identical. Identical values can stand only once.

B1: Bispecific construct 18 (bispecific antibody, human IgG1, kappa)
heavy: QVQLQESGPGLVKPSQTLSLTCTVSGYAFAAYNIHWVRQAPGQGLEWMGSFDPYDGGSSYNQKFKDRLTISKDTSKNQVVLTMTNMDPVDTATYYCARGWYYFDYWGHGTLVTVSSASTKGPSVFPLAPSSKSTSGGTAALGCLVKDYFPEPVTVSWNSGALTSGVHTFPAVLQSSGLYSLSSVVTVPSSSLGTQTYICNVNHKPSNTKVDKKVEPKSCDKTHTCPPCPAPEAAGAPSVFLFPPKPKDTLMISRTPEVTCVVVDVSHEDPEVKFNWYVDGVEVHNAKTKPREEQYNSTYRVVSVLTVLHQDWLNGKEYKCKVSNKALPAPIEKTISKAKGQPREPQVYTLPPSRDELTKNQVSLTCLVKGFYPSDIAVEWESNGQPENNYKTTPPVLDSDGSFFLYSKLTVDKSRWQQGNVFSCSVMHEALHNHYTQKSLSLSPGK
light: DIVMTQTPLSLPVTPGEPASISCRASKSISKYLAWYQQKPGQAPRLLIYSGSTLQSGIPPRFSGSGYGTDFTLTINNIESEDAAYYFCQQHDESPYTFGEGTKVEIKRTVAAPSVFIFPPSDEQLKSGTASVVCLLNNFYPREAKVQWKVDNALQSGNSQESVTEQDSKDSTYSLSSTLTLSKADYEKHKVYACEVTHQGLSSPVTKSFNRGECGGGGSGGGGSEVQLVESGGGLVQPGGSLRLSCAASGFTFNTYAMNWVRQAPGKGLEWVARIRSKYNNYATYYADSVKGRFTISRDDSKNTLYLQMNSLRAEDTAVYYCVRHGNFGNSYVSYFAYWGQGTTVTVSSGGGGSGGGGSGGGGSGGGGSEIVVTQSPATLSVSPGERATLSCRSSTGAVTAANYANWVQEKPGQAFRGLIGGANKRAPGVPARFSGSLSGDEATLTISSLQSEDFAVYYCALFYSNLWVFGQGTKLEIK
notes: anti-CD3 scFv Ab10; valency 2/2
B2: Bispecific construct 20 (bispecific antibody, human IgG1, kappa)
heavy: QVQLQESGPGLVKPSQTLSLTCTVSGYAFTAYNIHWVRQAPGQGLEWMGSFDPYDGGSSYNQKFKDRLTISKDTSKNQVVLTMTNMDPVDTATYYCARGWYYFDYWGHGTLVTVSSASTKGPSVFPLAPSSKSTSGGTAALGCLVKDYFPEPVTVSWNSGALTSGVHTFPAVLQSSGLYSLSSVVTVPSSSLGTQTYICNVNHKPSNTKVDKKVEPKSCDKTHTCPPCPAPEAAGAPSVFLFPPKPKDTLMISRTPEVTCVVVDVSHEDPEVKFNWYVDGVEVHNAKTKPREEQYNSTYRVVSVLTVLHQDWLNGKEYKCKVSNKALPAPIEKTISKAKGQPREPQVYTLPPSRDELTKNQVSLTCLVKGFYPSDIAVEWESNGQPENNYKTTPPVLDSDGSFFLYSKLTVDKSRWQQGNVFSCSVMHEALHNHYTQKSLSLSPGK
light: EVQLVESGGGLVQPGGSLRLSCAASGFTFNTYAMNWVRQAPGKGLEWVARIRSKYNNYATYYADSVKGRFTISRDDSKNTLYLQMNSLRAEDTAVYYCVRHGNFGNSYVSYFAYWGQGTTVTVSSGGGGSGGGGSGGGGSGGGGSEIVVTQSPATLSVSPGERATLSCRSSTGAVTAANYANWVQEKPGQAFRGLIGGANKRAPGVPARFSGSLSGDEATLTISSLQSEDFAVYYCALFYSNLWVFGQGTKLEIKGGGGSGGGGSDIVMTQTPLSLPVTPGEPASISCRASKSISKYLAWYQQKPGQAPRLLIYSGSTLQSGIPPRFSGSGYGTDFTLTINNIESEDAAYYFCQQHDESPYTFGEGTKVEIKRTVAAPSVFIFPPSDEQLKSGTASVVCLLNNFYPREAKVQWKVDNALQSGNSQESVTEQDSKDSTYSLSSTLTLSKADYEKHKVYACEVTHQGLSSPVTKSFNRGEC
notes: valency 2/2
B3: Bispecific construct 12 (bispecific antibody, human IgG1, kappa)
heavy: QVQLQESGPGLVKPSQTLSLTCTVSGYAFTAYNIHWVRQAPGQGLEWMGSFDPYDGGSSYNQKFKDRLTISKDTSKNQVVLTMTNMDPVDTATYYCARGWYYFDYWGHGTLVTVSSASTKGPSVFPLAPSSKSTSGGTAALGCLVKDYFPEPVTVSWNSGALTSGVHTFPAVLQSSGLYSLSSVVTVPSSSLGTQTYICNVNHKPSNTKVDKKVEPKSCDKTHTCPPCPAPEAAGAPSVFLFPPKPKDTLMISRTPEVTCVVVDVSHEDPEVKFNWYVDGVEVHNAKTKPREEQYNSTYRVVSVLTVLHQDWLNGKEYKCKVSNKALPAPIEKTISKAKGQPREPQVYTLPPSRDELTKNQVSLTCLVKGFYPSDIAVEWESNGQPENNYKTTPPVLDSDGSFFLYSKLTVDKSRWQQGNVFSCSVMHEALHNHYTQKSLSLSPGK
light: B1 light with G268C, Q472C
notes: disulfide-stabilized anti-CD3 scFv Ab10; ROR1 arm Ab1; valency 2/2
B4: control 1 (bispecific antibody)
polypeptide, role not told 1: QLVLTQSPSASASLGSSVKLTCTLSSGHKTDTIDWYQQQPGKAPRYLMKLEGSGSYNKGSGVPDRFSGSSSGADWYLTISSLQSEDEADYYCGTDYPGNYLFGGGTQLTVLGGGGSGGGGEVQLVESGGGLVQPGGSLRLSCAASGFTFSTYAMNWVRQAPGKGLEWVGRIRSKYNNYATYYADSVKGRFTISRDDSKNSLYLQMNSLKTEDTAVYYCVRHGNFGNSYVSWFAYWGQGTLVTVSSASTKGEVAACEKEVAALEKEVAALEKEVAALEKGGGDKTHTCPPCPAPEAAGGPSVFLFPPKPKDTLMISRTPEVTCVVVDVSHEDPEVKFNWYVDGVEVHNAKTKPREEQYNSTYRVVSVLTVLHQDWLNGKEYKCKVSNKALPAPIEKTISKAKGQPREPQVYTLPPSREEMTKNQVSLWCLVKGFYPSDIAVEWESNGQPENNYKTTPPVLDSDGSFFLYSKLTVDKSRWQQGNVFSCSVMHEALHNHYTQKSLSLSPGK
polypeptide, role not told 2: QAVVTQEPSLTVSPGGTVTLTCRSSTGAVTTSNYANWVQQKPGQAPRGLIGGTNKRAPWTPARFSGSLLGGKAALTITGAQAEDEADYYCALWYSNLWVFGGGTKLTVLGGGGSGGGGQEQLVESGGGLVQPGGSLRLSCAASGFTFSDYYMSWIRQAPGKGLEWVATIYPSSGKTYYADSAKGRLTISSDNAKDSLYLQMNSLRAEDTAVYYCTRDSYADDAALFDIWGQGTTVTVSSASTKGKVAACKEKVAALKEKVAALKEKVAALKE
polypeptide, role not told 3: not shown
B5: Bispecific construct 16 (bispecific antibody, human IgG1, kappa)
heavy 1: not shown
heavy 2: EVQLVESGGGLVQPGGSLRLSCAASGFTFNTYAMNWVRQAPGKGLEWVARIRSKYNNYATYYADSVKGRFTISRDDSKNTLYLQMNSLRAEDTAVYYCVRHGNFGNSYVSYFAYWGQGTTVTVSSGGGGSGGGGSGGGGSGGGGSEIVVTQSPATLSVSPGERATLSCRSSTGAVTAANYANWVQEKPGQAFRGLIGGANKRAPGVPARFSGSLSGDEATLTISSLQSEDFAVYYCALFYSNLWVFGQGTKLEIKEPKSSDKTHTCPPCPAPEAAGAPSVFLFPPKPKDTLMISRTPEVTCVVVDVSHEDPEVKFNWYVDGVEVHNAKTKPREEQYNSTYRVVSVLTVLHQDWLNGKEYKCKVSNKALPAPIEKTISKAKGQPREPQVYTLPPSRDELTKNQVSLSCAVKGFYPSDIAVEWESNGQPENNYKTTPPVLDSDGSFFLVSKLTVDKSRWQQGNVFSCSVMHEALHNHYTQKSLSLSPGK
light: DIVMTQTPLSLPVTPGEPASISCRASKSISKYLAWYQQKPGQAPRLLIYSGSTLQSGIPPRFSGSGYGTDFTLTINNIESEDAAYYFCQQHDESPYTFGEGTKVEIKRTVAAPSVFIFPPSDEQLKSGTASVVCLLNNFYPREAKVQWKVDNALQSGNSQESVTEQDSKDSTYSLSSTLTLSKADYEKHKVYACEVTHQGLSSPVTKSFNRGEC
notes: anti-CD3 scFv Ab10; valency 1/1
B6: Bispecific construct 17 (bispecific antibody, human IgG1, kappa)
heavy 1: not shown
heavy 2: B5 heavy 2 with G44C, Q248C
light: B5 light
notes: disulfide-stabilized anti-CD3 scFv Ab10; valency 1/1
B7: Bispecific construct 19 (bispecific antibody, human IgG1, kappa)
heavy 1: not shown
heavy 2: EVQLVESGGGLVQPGGSLRLSCAASGFTFNTYAMNWVRQAPGKGLEWVARIRSKYNNYATYYADSVKGRFTISRDDSKNTLYLQMNSLRAEDTAVYYCVRHGNFGNSYVSYFAYWGQGTTVTVSSGGGGSGGGGSGGGGSGGGGSEIVVTQSPATLSVSPGERATLSCRSSTGAVTAANYANWVQEKPGQAFRGLIGGANKRAPGVPARFSGSLSGDEATLTISSLQSEDFAVYYCALFYSNLWVFGQGTKLEIKGGGGSGGGGSQVQLQESGPGLVKPSQTLSLTCTVSGYAFTAYNIHWVRQAPGQGLEWMGSFDPYDGGSSYNQKFKDRLTISKDTSKNQVVLTMTNMDPVDTATYYCARGWYYFDYWGHGTLVTVSSASTKGPSVFPLAPSSKSTSGGTAALGCLVKDYFPEPVTVSWNSGALTSGVHTFPAVLQSSGLYSLSSVVTVPSSSLGTQTYICNVNHKPSNTKVDKKVEPKSCDKTHTCPPCPAPEAAGAPSVFLFPPKPKDTLMISRTPEVTCVVVDVSHEDPEVKFNWYVDGVEVHNAKTKPREEQYNSTYRVVSVLTVLHQDWLNGKEYKCKVSNKALPAPIEKTISKAKGQPREPQVYTLPPSRDELTKNQVSLSCAVKGFYPSDIAVEWESNGQPENNYKTTPPVLDSDGSFFLVSKLTVDKSRWQQGNVFSCSVMHEALHNHYTQKSLSLSPGK
light: B5 light
notes: CD3 valency 1, ROR1 valency 2

What follows are binders tested against human ROR1 on cells (human, UniProt Q01973 30-937) (assay: cell-based or functional assay).
Chain of human ROR1 on cells (Q01973 30-937 limits assumed): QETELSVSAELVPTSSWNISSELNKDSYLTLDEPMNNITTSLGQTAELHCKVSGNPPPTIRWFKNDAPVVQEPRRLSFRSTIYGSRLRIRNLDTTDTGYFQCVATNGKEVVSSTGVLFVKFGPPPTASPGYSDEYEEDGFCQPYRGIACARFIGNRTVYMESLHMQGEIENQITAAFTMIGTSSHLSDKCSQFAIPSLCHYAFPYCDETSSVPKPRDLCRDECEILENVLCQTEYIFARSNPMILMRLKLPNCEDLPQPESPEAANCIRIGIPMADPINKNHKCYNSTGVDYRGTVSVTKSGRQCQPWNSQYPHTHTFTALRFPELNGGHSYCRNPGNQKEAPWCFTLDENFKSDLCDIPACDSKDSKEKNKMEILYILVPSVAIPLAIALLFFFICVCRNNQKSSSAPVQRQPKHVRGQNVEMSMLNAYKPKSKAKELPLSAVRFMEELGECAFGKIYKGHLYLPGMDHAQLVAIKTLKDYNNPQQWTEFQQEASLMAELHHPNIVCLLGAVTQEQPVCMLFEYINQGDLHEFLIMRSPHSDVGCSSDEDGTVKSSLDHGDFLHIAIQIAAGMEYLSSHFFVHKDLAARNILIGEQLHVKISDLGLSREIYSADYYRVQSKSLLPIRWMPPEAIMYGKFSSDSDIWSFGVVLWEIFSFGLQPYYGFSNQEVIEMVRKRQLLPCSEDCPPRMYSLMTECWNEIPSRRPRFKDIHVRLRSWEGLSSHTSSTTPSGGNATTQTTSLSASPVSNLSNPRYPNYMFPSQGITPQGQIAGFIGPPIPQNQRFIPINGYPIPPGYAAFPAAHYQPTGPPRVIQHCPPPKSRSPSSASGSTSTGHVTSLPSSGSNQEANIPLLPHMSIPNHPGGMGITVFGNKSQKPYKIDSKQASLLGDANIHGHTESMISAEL

Binder	EC50, LDH release, ROR1-transfected MEC	Max. LDH Release, ROR1-transfected MEC [%]
B1	3.5 ng/mL and 17 pM	34
B2	1.8 ng/mL and 9 pM	37

Each binder was assayed against T1, recombinant human ROR1 extracellular domain (human, UniProt Q01973 30-406) (assay: ELISA, immobilised ROR1 ECD, construct titrated).
T1 construct: Bought (Acro Biosystems cat. R01-H522Y); whole entry named; also called ROR1-ECD; immobilized ROR1
T1 sequence (Q01973 30-406 limits assumed): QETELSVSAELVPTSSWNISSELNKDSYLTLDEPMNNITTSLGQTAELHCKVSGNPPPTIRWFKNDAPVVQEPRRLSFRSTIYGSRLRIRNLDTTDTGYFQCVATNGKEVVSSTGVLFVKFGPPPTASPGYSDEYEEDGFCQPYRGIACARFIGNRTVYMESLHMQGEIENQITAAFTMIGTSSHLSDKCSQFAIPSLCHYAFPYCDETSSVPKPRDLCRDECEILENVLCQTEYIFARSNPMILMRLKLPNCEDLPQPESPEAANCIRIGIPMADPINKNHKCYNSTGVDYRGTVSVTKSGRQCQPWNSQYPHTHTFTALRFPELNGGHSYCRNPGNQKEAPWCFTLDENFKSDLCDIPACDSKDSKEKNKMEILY
Experimental: A 96-well Costar-3366 plate was coated with 50 μL/well of 2 μg/mL […] (Acro Biosystems cat. #R01-H522Y) in PBS overnight at 4° C. The plate was rinsed once with PBS containing 0.05% Tween 20 (PBS-T) and blocked with 100 μL/well of 5% non-fat milk in PBS (5% M-P) for 1 h at 25° C. Antibody samples were serially diluted 2-fold using 5% M-P and were incubated for 1 h at 25° C. (50 μL/well). The plate was washed three times with PBS-T and 50 μL/well anti-human kappa, HRP conjugate (Southern Biotech cat. #2060-05) diluted 10,000-fold in 5% M-P was added for 1 h at 25° C. The plate was washed three times with PBS-T, developed with 50 μL/well 1-Step Ultra TMB-ELISA (Thermo Scientific cat. #34028). The reaction was terminated by the addition of 2 N H₂SO₄ and the A450 was determined using a Spectramax plate reader.
Next, the binding of bispecific binding molecules to ROR was characterized by ELISA using recombinantly-expressed extracellular domain of RORL. ROR was immobilized on a microtiter plate, the bispecific binding molecules were titrated, and binding was quantitated with an anti-human kappa-HRP reagent. Consistent with the cell binding data, all constructs bound ROR1 in a concentration-dependent manner (FIG. 6). Moreover, monovalent ROR1 constructs 13-15 bound less tightly than all but two of the bivalent constructs.

Binder	Kd [nM]
B3	0.116

These binders were tested against T2, human CD3 on Jurkat cells (human, UniProt P09693 23-182; P04234 22-171; P07766 23-207) (assay: flow cytometry on Jurkat cells).
T2 construct: GenBank NP_000064.1, NP_000723.1, NP_000724.1
T2 sequence (P09693 23-182 limits assumed, chain 1 of 3): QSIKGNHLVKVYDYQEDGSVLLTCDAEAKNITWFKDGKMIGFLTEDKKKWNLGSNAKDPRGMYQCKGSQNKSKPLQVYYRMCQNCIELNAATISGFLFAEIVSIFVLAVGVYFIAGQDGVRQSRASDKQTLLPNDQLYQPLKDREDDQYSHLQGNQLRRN
T2 sequence (P04234 22-171 limits assumed, chain 2 of 3): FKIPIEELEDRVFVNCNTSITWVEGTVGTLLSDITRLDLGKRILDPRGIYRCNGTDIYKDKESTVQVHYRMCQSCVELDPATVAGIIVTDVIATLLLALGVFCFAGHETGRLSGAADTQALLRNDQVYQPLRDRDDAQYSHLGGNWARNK
T2 sequence (P07766 23-207 limits assumed, chain 3 of 3): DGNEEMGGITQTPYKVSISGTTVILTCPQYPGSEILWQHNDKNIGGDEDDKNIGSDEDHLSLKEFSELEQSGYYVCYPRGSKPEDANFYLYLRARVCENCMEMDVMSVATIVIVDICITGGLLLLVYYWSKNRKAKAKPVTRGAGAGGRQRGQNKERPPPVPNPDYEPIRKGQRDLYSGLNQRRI
Experimental: To quantitate CD3 binding, 2.5E5 Jurkat cells were used for each condition. A 2× stock of the cells was made by resuspending the cells to 5E6/mL by placing in 50 μL of PBS with 2% FBS. Next, the cells were diluted with an equal volume of 2× stock of the test bispecific binding molecule. The cells and antibody were co-incubated on ice for 20 min. The cells were then washed 3 times with 300 μL of FACS buffer and were resuspended in 100 μL of goat anti-human Fc-PE conjugate antibody (Invitrogen cat. #12499882) at 1:500 dilution and incubated on ice with reduced light for 20 min. The cells were then washed 3 times with 300 μL of FACS buffer and fixed with 2% paraformaldehyde for 10 min at 25° C. The cells were washed 2 times with 300 μL of FACS buffer and analyzed on a Miltenyi MACSQuant Analyzer.

Binder	binding result
B4	binds
B5	binds
B6	binds
B3	binds
B1	binds

Each binder was assayed against T3, soluble biotinylated human ROR1 extracellular domain (human, UniProt Q01973 30-406, biotinylated with EZ-Link Sulfo-NHS-LC-Biotin at a 1:5 molar ratio) (assay: ELISA, captured construct, biotinylated ROR1 titrated).
T3 construct: Acro Biosystems cat; whole entry named; also called b-ROR1; soluble b-ROR1
T3 sequence (Q01973 30-406 limits assumed): as the sequence (Q01973 30-406 limits assumed) above
Experimental: To measure the binding of bispecific constructs to soluble ROR1, a 96-well Costar-3366 plate was coated with 50 μL/well of 2 μg/mL goat anti-human kappa (Southern Biotech cat. #2060-01) in PBS overnight at 4° C. The plate was rinsed once with PBS-T, blocked with 100 μL/well 5% M-P for 1 h at 25° C., rinsed once with PBS-T, and 2 μg/mL of the bispecific binding molecule was added and incubated for 1 h at 25° C. The plate was washed three times with PBS-T. Biotinylated ROR1 was diluted serially, 3-fold in 5% M-P and was incubated for 1 h at 25° C. (50 μL/well). The plate was washed three times with PBS-T. To detect the binding of b-ROR1, 50 μL/well Neutravidin-HRP (Pierce cat. #31030) diluted 1:5000 in 1% BSA-PBS was added for 1 h at 25° C. The plate was washed three times with PBS-T, then developed with 50 μL/well 1-Step Ultra TMB-ELISA (Thermo Scientific cat. #34028). The reaction was terminated by the addition of 2 N H₂SO₄ and the A450 was determined using a Spectramax plate reader.
The stronger binding observed with bivalent constructs versus monovalent constructs in cell assays and ELISAs in which the antigen is immobilized is consistent with an avidity effect. To determine if this was the case, binding to soluble monomeric ROR1 was assessed by immobilizing the bispecific binding molecules on a microtiter plate coated with goat anti-human kappa antibody and titrating biotinylated RORL. All bispecific binding molecules were active in this format (FIG. 7), and in most cases, there were no notable differences between monovalent and bivalent constructs.

Binder	Kd [nM]
B5	0.057
B7	0.2
B6	0.068
B3	0.086
B1	0.048
B2	0.366
